Four substances from publication PMC11063902 can be followed below.

In series [1] the target is eIF4A•eIF4G_(682-1104)-Fl (UniProt Q04637). Description: fluorescence polarisation; as a3 with 200 nM eIF3 added (subsaturating, ~50% of eIF4G-Fl bound); 20 nM eIF4G-Fl, 3 uM eIF4A, 40S subunit titrated; 0.5 mM ATP/MgCl2. A general note: Polarisation of emitted light reports the rotation of a fluorescent probe.
The target of series [2] is eIF4A•eIF4G_(711-1104)-Fl (UniProt Q04637). Described as above.
Series [3] deals with eIF4A•eIF4G_(682-1104)-Fl (UniProt Q04637). Nature of the series: fluorescence polarisation; 20 nM eIF4G-Fl with 3 uM eIF4A, 40S subunit titrated; Binding Buffer (20 mM Tris acetate pH 7.5, 70 mM KCl, 2 mM free Mg2+, 0.1 mM spermidine, 1 mM DTT, 10% glycerol, 0.1 mg/ml BSA) with 0.5 mM ATP/MgCl2; 10 min ice, 5 min 30 °C, 10 min room temperature.
For series [4], the target named is eIF4A•eIF4G_(711-1104)-Fl (UniProt Q04637). Described as above.
Series [5] relates to eIF4G682-1104 (human). Description: fluorescence anisotropy. Particulars: uncapped; 20 mM Tris acetate pH 7.5, 70 mM KCl, 2 mM free Mg2+ (Mg acetate), 0.1 mM spermidine, 1 mM DTT, 10% glycerol, 0.1 mg/ml BSA; 20 nM RNA; 30 °C for 5 min.
For series [6], the system named is eIF4G721-1104 (human). Nature of the series: fluorescence anisotropy. Conditions: text gives 4.60 ± 0.47 uM; uncapped; 20 mM Tris acetate pH 7.5, 70 mM KCl, 2 mM free Mg2+ (Mg acetate), 0.1 mM spermidine, 1 mM DTT, 10% glycerol, 0.1 mg/ml …; 20 nM RNA; 30 °C for 5 min.
Series [7] deals with eIF4G_(721-1104)-Fl (S1041C) (human) (UniProt Q04637). Nature of the series: fluorescence polarisation; eIF4G_(721-1104)-Fl (fluorescein at S1041C) titrated with eIF3 or eIF3-PR∗; carried out as described previously (ref. 7).
Series [8] shares this target. The series is described as above. This is another data set of the same source.

Like-named read-outs stand apart in the source and are kept apart here.

As a reminder, the Kd is the free concentration of one partner at which half of the binding sites on the other are occupied at equilibrium, for simple one-to-one binding. In the case of 40S ribosomal subunit (complex), the KD with 200 nM eIF3 turned out to be 76 nM in series [1] and 248 nM in series [2]. Further, the Kd in series [3] came out at 129 nM; in series [4] it was 563 nM.

Take CAA-42-FL (42-mer RNA-Fl): the Kd in series [5] came to 463 nM; in series [6] it was 4600 nM.

Regarding “eIF3 (intact multi-subunit complex) (from UniProt O15371 1-548; Q99613 1-913; O75822 1-258)”, the dissociation constant Kd was 124 nM in series [7] and 81 nM in series [8].

In the case of “eIF3-PR∗ (eIF3 cleaved by HIV-1 PR and purified by size exclusion chromatography) (from UniProt O15371 1-114; Q99613 1-913) (complex)”, the Kd worked out at 75 nM in series [7] and 127 nM in series [8].
